The labels stand for the following.
B1: DNA repair protein complementing XP-C cells (Homo sapiens), Q01831-1 (parent)
chain: MARKRAAGGEPRGRELRSQKSKAKSKARREEEEEDAFEDEKPPKKSLLSKVSQGKRKRGCSHPGGSADGPAKKKVAKVTVKSENLKVIKDEALSDGDDLRDFPSDLKKAHHLKRGATMNEDSNEEEEESENDWEEVEELSEPVLGDVRESTAFSRSLLPVKPVEIEIETPEQAKTRERSEKIKLEFETYLRRAMKRFNKGVHEDTHKVHLLCLLANGFYRNNICSQPDLHAIGLSIIPARFTRVLPRDVDTYYLSNLVKWFIGTFTVNAELSASEQDNLQTTLERRFAIYSARDDEELVHIFLLILRALQLLTRLVLSLQPIPLKSATAKGKKPSKERLTADPGGSSETSSQVLENHTKPKTSKGTKQEETFAKGTCRPSAKGKRNKGGRKKRSKPSSSEEDEGPGDKQEKATQRRPHGRERRVASRVSYKEESGSDEAGSGSDFELSSGEASDPSDEDSEPGPPKQRKAPAPQRTKAGSKSASRTHRGSHRKDPSLPAASSSSSSSKRGKKMCSDGEKAEKRSIAGIDQWLEVFCEQEEKWVCVDCVHGVVGQPLTCYKYATKPMTYVVGIDSDGWVRDVTQRYDPVWMTVTRKCRVDAEWWAETLRPYQSPFMDREKKEDLEFQAKHMDQPLPTAIGLYKNHPLYALKRHLLKYEAIYPETAAILGYCRGEAVYSRDCVHTLHSRDTWLKKARVVRLGEVPYKMVKGFSNRARKARLAEPQLREENDLGLFGYWQTEEYQPPVAVDGKVPRNEFGNVYLFLPSMMPIGCVQLNLPNLHRVARKLDIDCVQAITGFDFHGGYSHPVTDGYIVCEEFKDVLLTAWENEQAVIERKEKEKKEKRALGNWKLLAKGLLIRERLKRRYGPKSEAAAPHTDAGGGLSSDEEEGTSSQAEAARILAASWPQNREDEEKQKLKGGPKKTKREKKAAASHLFPFEQL

One assay covers variants of B1. The conditions noted are these: with tf2h1_human GTF2H1, P32780.
Sequence of tf2h1_human GTF2H1, P32780 (P32780 whole entry): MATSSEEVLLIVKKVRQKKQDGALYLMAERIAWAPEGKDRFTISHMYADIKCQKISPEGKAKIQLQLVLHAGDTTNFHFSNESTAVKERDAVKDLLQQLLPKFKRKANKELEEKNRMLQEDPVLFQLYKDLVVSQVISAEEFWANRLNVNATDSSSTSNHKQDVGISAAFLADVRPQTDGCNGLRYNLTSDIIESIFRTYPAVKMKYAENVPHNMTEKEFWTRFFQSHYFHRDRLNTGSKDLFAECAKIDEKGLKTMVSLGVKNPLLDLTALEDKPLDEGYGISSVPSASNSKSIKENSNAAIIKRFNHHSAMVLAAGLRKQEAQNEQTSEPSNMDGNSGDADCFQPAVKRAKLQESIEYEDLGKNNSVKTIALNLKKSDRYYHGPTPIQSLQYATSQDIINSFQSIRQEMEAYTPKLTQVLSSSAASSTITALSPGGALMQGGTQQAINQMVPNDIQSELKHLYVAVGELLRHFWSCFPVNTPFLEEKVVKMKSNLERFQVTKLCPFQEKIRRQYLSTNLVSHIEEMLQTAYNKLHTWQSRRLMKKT
In the case of E128A, the “effect of a mutation on the interaction” value was “decreasing interaction strength”.
Turning to V136A, the “effect of a mutation on the interaction” value is listed as “decreasing interaction strength”.
With W133A, the “effect of a mutation on the interaction” value is listed as “disrupting interaction strength”.
On the same count and under the same terms, the result for W133F reads “decreasing interaction strength”; that for L139A, “decreasing interaction strength”.

The next assay covers variants of B1. To be noted: with ercc3_human ERCC3, P19447.
Sequence of ercc3_human ERCC3, P19447 (P19447 whole entry): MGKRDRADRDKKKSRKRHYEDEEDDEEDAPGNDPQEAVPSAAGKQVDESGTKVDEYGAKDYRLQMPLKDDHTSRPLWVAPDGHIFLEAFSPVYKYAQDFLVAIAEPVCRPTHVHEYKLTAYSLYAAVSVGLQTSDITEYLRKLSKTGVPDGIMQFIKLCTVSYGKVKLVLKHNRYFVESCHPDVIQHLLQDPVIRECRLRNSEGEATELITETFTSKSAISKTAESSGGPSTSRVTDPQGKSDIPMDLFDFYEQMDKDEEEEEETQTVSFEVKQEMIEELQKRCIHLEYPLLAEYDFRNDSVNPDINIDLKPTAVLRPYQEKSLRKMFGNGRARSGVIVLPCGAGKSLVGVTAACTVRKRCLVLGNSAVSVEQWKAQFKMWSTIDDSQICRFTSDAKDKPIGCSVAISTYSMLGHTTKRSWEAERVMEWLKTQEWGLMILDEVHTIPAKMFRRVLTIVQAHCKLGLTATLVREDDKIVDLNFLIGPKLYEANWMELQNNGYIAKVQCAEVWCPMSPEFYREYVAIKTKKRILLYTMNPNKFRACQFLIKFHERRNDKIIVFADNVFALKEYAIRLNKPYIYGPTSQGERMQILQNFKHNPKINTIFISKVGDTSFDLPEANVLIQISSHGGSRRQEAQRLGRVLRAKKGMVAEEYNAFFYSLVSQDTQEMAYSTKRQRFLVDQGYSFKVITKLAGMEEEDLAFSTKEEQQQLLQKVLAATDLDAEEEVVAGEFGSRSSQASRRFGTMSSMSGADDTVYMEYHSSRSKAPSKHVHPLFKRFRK
In the case of V136A, the “effect of a mutation on the interaction” value was “decreasing interaction strength”.
The same measure, in the same setting: as for W133A, the entry is “decreasing interaction strength”; as for W133A;V136A, “decreasing interaction strength”.

These data come from IntAct's records for PubMed 26278177.
